{"source": "paper PMC6085349", "about": "“Silkworms suppress the release of green leaf volatiles by mulberry leaves with an enzyme from their spinnerets” (Scientific Reports, 2018)", "proteins": {"B1": {"name": "BmFHD (Bombyx mori fatty acid hydroperoxide dehydratase) (Bombyx mori) (protein)", "chain": "GGLRTTWGVGLGLGTDFFYEIPRSLEEVKSQGWVLTDKADGLPLPSLALYCSEDRILCGFFDETEYVVGLQVSLPVDEVTDIIFDMPTQGFIIWETEVDGELKKFYSIQQYFINEDTLKQSVEDRLSKWDSSKTLQEKSIWVTGFNGTLLEISTVADDIANGDDFTKQACVPWMGRHYYYKMSAKTECKADTLLPWFPIVESGELIATGFISFLKLSNTYKWFEKPSKAAVQFIVPDGPKCLYDLAEDSGLTTMHIYYVNQPWLVSCLWQ", "notes": "native, purified from middle silk glands (MSG-A) of fifth instar larvae; 289 aa precursor with predicted 19-residue N-terminal signal peptide; 32 kDa on SDS-PAGE; no tag"}}, "substrate": "CC/C=C\\C[C@@H](/C=C/C=C\\CCCCCCCC(=O)O)OO", "assay": "purified protein", "assay_type": "biochemical, Bombyx mori", "conditions": "typical assay 50 mM sodium borate pH 9.0, no cofactor, enzyme inactivates during turnover", "data": [{"protein": "B1", "values": [{"measurement": "Km", "value": 1.13, "unit": "µM"}]}]}
